Assay results published in PMC7596997.

Molecular target: S. cerevisiae AAC2, P18239
Experiment: binding of [35S]-labeled AAC2 to isolated mitochondria
Details: chain shown with the change, AAC2 lysate preincubated with apyrase, n = 3, read off a plot

Chain of S. cerevisiae AAC2, P18239 (P18239 whole entry, the tested form may be a part): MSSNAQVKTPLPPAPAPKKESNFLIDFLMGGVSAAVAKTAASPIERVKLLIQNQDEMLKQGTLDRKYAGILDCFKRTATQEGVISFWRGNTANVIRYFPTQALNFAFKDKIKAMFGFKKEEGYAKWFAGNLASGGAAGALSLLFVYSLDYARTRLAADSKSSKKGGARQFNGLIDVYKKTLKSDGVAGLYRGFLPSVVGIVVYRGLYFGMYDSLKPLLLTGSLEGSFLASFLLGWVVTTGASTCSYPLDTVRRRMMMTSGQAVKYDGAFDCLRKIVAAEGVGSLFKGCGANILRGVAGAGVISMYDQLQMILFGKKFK

other: bound protein, % of control (same mitochondria without NEM, 12 min) (mitochondria pretreated with 2 mM NEM, control = untreated Tom70C141A mitochondria at 12 min): 95 % of control
other: bound protein, % of control (same mitochondria without NEM, 12 min) (no NEM, this point is the normalisation control (100%), not a comparison with wild type): 100 % of control
B1: Tom70 in the outer membrane of isolated yeast mitochondria (wild type), P07213 C141A (protein)
chain: MKSFITRNKTAILATVAATGTAIGAYYYYNQLQQQQQRGKKNTINKDEKKDTKDSQKETEGAKKSTAPSNPPIYPVSSNGEPDFSNKANFTAEEKDKYALALKDKGNQFFRNKKYDDAIKYYNWALELKEDPVFYSNLSAAYVSVGDLKKVVEMSTKALELKPDYSKVLLRRASANEGLGKFADAMFDLSVLSLNGDFNDASIEPMLERNLNKQAMSKLKEKFGDIDTATATPTELSTQPAKERKDKQENLPSVTSMASFFGIFKPELTFANYDESNEADKELMNGLSNLYKRSPESYDKADESFTKAARLFEEQLDKNNEDEKLKEKLAISLEHTGIFKFLKNDPLGAHEDIKKAIELFPRVNSYIYMALIMADRNDSTEYYNYFDKALKLDSNNSSVYYHRGQMNFILQNYDQAGKDFDKAKELDPENIFPYIQLACLAYRENKFDDCETLFSEAKRKFPEAPEVPNFFAEILTDKNDFDKALKQYDLAIELENKLDGIYVGIAPLVGKATLLTRNPTVENFIEATNLLEKASKLDPRSEQAKIGLAQMKLQQEDIDEAITLFEESADLARTMEEKLQAITFAEAAKVQQRIRSDPVLAKKIQETLAKLREQGLM
